Assay results reported in patent US20250136678A1 (BIOSION, published 2025).
Positions count from the first letter of the chain named.

B1: mouse antibody E1B1B8C7 (antibody, V domains shown)
VH: QVQLQQPGAELVRPGTSVKLSCKASGYSFTNYWVNWVKQRPGQGLEWIGMVHPSGSETRLNQQFKDKATLTVDKSSNTAYMQLNRPTSEDSAVYYCARVWSGNAFDYWGQGTTLIVSS
VL: DIVMTQSPSSLTVTAGEKVTLNCLSSQSLLNSGNQRNYLTWYQQKPGQPPKLLIYWASTRDSGVPDRFTGGGSGVDFTLTIYRVQAEDLAFYYCQNGFSFPFTFGSGTKLEMK
notes: Mouse hybridoma monoclonal antibody; also called mouse E1B1B8C7
B2: mouse antibody E1A1F4B5 (antibody, V domains shown)
VH: B1 VH with V51I, Q63R, K65R, A68T, K74R
VL: B1 VL with L24M, R36K, Y93F
notes: Mouse hybridoma monoclonal antibody purified on Protein A
B3: mouse antibody E1H4C3E5 (antibody, V domains shown)
VH: B1 VH with V34M, V51I, T58S, Q63K, E89A
VL: B1 VL with N22S, L24M, R36K, Y55F, V75T, D76L, K113R
notes: Mouse hybridoma monoclonal antibody
B4: chE1B1B8C7-V2 (antibody, human IgG1, kappa, V domains shown)
VH: B1 VH
VL: DIVMTQSPSSLTVTAGEKVTLNCLSSQSLLNAGNQRNYLTWYQQKPGQPPKLLIYWASTRDSGVPDRFTGGGSGVDFTLTIYRVQAEDLAFYYCQNGFSFPFTFGSGTKLEMKR
notes: Chimeric human IgG1/kappa; also called chimeric antibody chE1B1B8C7-V2
B5: chE1B1B8C7-V1 (antibody, human IgG1, kappa, V domains shown)
VH: B1 VH
VL: B4 VL with N31A, A32S
notes: Chimeric human IgG1/kappa; also called chimeric antibody chE1B1B8C7-V1
B6: chE1B1B8C7-V3 (antibody, human IgG1, kappa, V domains shown)
VH: B1 VH
VL: B4 VL with A32E
notes: Chimeric human IgG1/kappa; also called chimeric antibody chE1B1B8C7-V3
B7: huE1B1B8C7-V2 (antibody, human IgG1, kappa, V domains shown)
VH: QVQLVQSGAEVKKPGASVKVSCKASGYSFTNYWVNWVRQAPGQGLEWIGMVHPSGSETRLNQQFKDKATLTVDTSTSTVYMELSSLRSEDTAVYYCARVWSGNAFDYWGQGTLVTVSS
VL: DIVMTQSPDSLAVSLGERATINCLSSQSLLASGNQRNYLTWYQQKPGQPPKLLIYWASTRDSGVPDRFTGSGSGVDFTLTISSVQAEDVAVYYCQNGFSFPFTFGQGTKLEIKR
notes: Humanized, human IgG1/kappa; X positions as numbered in CLM-00003 and CLM-00004
B8: huE1B1B8C7-V1 (antibody, human IgG1, kappa, V domains shown)
VH: B7 VH with T74K, V79A
VL: B7 VL
notes: as for B7
B9: huE1B1B8C7-V3 (antibody, human IgG1, kappa, V domains shown)
VH: B7 VH with S28T
VL: B7 VL
notes: as for B7
B10: huE1B1B8C7-V4 (antibody, human IgG1, kappa, V domains shown)
VH: B7 VH with I48M
VL: B7 VL
notes: as for B7
B11: huE1B1B8C7-V5 (antibody, human IgG1, kappa, V domains shown)
VH: B7 VH with K67R
VL: B7 VL
notes: as for B7
B12: huE1B1B8C7-V6 (antibody, human IgG1, kappa, V domains shown)
VH: B7 VH with A68V
VL: B7 VL
notes: as for B7
B13: huE1B1B8C7-V7 (antibody, human IgG1, kappa, V domains shown)
VH: B7 VH with L70M
VL: B7 VL
notes: as for B7
B14: huE1B1B8C7-V8 (antibody, human IgG1, kappa, V domains shown)
VH: B7 VH with V72R
VL: B7 VL
notes: as for B7
B15: huE1B1B8C7-V9 (antibody, human IgG1, kappa, V domains shown)
VH: B7 VH with T74K, V79A
VL: B7 VL with T69S
notes: as for B7
B16: huE1B1B8C7-V10 (antibody, human IgG1, kappa, V domains shown)
VH: B7 VH
VL: B7 VL with T69S
notes: as for B7
B17: huE1B1B8C7-V11 (antibody, human IgG1, kappa, V domains shown)
VH: B7 VH with S28T
VL: B7 VL with T69S
notes: as for B7
B18: huE1B1B8C7-V12 (antibody, human IgG1, kappa, V domains shown)
VH: B7 VH with T74K, V79A
VL: B7 VL with V75T
B19: huE1B1B8C7-V13 (antibody, human IgG1, kappa, V domains shown)
VH: B7 VH
VL: B7 VL with V75T
notes: as for B7
B20: huE1B1B8C7-V14 (antibody, human IgG1, kappa, V domains shown)
VH: B7 VH with S28T
VL: B7 VL with V75T
notes: as for B7
B21: huE1B1B8C7-V15 (antibody, human IgG1, kappa, V domains shown)
VH: B7 VH with T74K, V79A
VL: B7 VL with V84L
notes: as for B7
B22: huE1B1B8C7-V16 (antibody, human IgG1, kappa, V domains shown)
VH: B7 VH
VL: B7 VL with V84L
notes: as for B7
B23: huE1B1B8C7-V17 (antibody, human IgG1, kappa, V domains shown)
VH: B7 VH with S28T
VL: B7 VL with V84L
notes: as for B7

How the values were obtained:
[1] = molecular target: T1, human CLDN18.2 (NP_001002026.1) (human, UniProt P56856-2 1-261); assay: FACS on BAF3-CLDN18.2 cells, FITC fluorescence; item G7; blank without antibody (H7) MFI 178
T1 construct: whole, on cells; KATO III cells also served as target cells in the ADCC assay; also called Claudin18.2; Claudin-18 splice variant 2

[2] = molecular target: T1, human CLDN18.2 (NP_001002026.1); assay: FACS on BAF3-CLDN18.2 cells, FITC fluorescence; item F7; blank without antibody (H7) MFI 178
[3] = molecular target: human CLDN18.1 (Uniprot No:P56856) (human) (UniProt P56856); assay: FACS on BAF3-CLDN18.1 cells, FITC fluorescence; item A1; blank without antibody (C1) MFI 242
[4] = molecular target: human CLDN18.1 (Uniprot No:P56856) (human) (UniProt P56856); assay: FACS on BAF3-CLDN18.1 cells, FITC fluorescence; item B1; blank without antibody (C1) MFI 242
[5] = molecular target: T1, human CLDN18.2 (NP_001002026.1); assay: FACS on 293T-CLDN18.2 cells, PE fluorescence; item D4; blank without antibody (E4) MFI 21.8
[6] = molecular target: T1, human CLDN18.2 (NP_001002026.1); assay: FACS on 293T-CLDN18.2 cells, PE fluorescence; item A4; blank without antibody (E4) MFI 21.8
[7] = molecular target: T1, human CLDN18.2 (NP_001002026.1); assay: FACS on 293T-CLDN18.2 cells, PE fluorescence; item B4; blank without antibody (E4) MFI 21.8
[8] = molecular target: T1, human CLDN18.2 (NP_001002026.1); assay: cell-based binding FACS on BAF3-CLDN18.2 cells, MFI against Con of mAb, nM is the unit of the x axis; the three mouse curves overlap and level off near MFI 2300-2400
Description: (§1) The BAF3-CLDN18.2, BAF3-CLDN18.1 and BAF3 cells were harvested, washed twice and re-suspended in phosphate buffered saline (PBS) containing 2% v/v Fetal Bovine Serum (FACS buffer), BAF3 cells were used here as blank control. The cells, 1×10⁵ per well, were incubated in 96 well-plates with 100 μl serially diluted antibodies or controls (starting from 10 μg/mL, 5-fold serial dilution) in FACS buffer for 50 minutes on ice. […] Following an incubation of 50 minutes at 4° C. in dark, cells were washed three times and re-suspended in FACS buffer. Fluorescence was measured using a Becton Dickinson FACS Canto II-HTS equipment, and the MFI (mean fluorescence intensity) was plotted against antibody concentration. Data was analyzed using Graphpad Prism and EC₅₀ values were reported.

[9] = molecular target: T1, human CLDN18.2 (NP_001002026.1); assay: cell-based blocking FACS on BAF3-CLDN18.2 cells; competitor: biotin labeled Zolbetuximab, SA-PE detection, nM is the unit of the x axis; signal falls from about 800-870 to about 110 at the last point
Description: The anti-CLDN18.2 antibodies of the disclosure, and the controls were diluted with FACS buffer starting from 10 μg/mL with 5-fold serial dilution. BAF3-CLDN18.2 cells were harvested from cell culture flasks at the log phase, washed twice and re-suspended in PBS containing 2% v/v Fetal Bovine Serum (FACS buffer). […] Then the cells were washed twice with FACS buffer, added with 100 μl/well SA-PE (1:200 dilution in FACS buffer, Cat #:016-110-084, Jackson Immunoresearch), and incubated for 40 minutes at 4° C. in dark. Cells were washed twice and re-suspended in FACS buffer. Fluorescence was measured using a Becton Dickinson FACS Canto II-HTS equipment. Data was analyzed using Graphpad Prism and IC₅₀ values were reported.

[10] = molecular target: T1, human CLDN18.2 (NP_001002026.1); assay: cell-based binding FACS on BAF3-CLDN18.2 cells; y axis unlabelled, nM is the unit of the x axis; the three chimeric curves run close together and reach about 7200-7700 at the last point without a clear plateau
Description: as §1

[11] = molecular target: T1, human CLDN18.2 (NP_001002026.1); assay: cell-based binding FACS on BAF3-CLDN18.2 cells, MFI against Con of mAb, nM is the unit of the x axis; curve lies in a bundle of overlapping curves reaching MFI about 5000-6000
Description: as §1

[12] = molecular target: T1, human CLDN18.2 (NP_001002026.1); assay: cell-based binding FACS on BAF3-CLDN18.2 cells, MFI against Con of mAb (nM)
Description: as §1

[13] = molecular target: T1, human CLDN18.2 (NP_001002026.1); assay: cell-based binding FACS on BAF3-CLDN18.2 cells, MFI against Con of mAb, nM is the unit of the x axis; curve lies in a bundle of close curves reaching MFI about 5300-5900
Description: as §1

Molecule	EC50 [11] [nM]	EC50 [13] [nM]	also measured
anti-CLDN18 antibody (Cat #ab203563, Abeam)	–	–	MFI at 500 ng/ml [1]: 3020; MFI at 1000 ng/ml [2]: 3340; MFI at 1000 ng/ml [3]: 5340; MFI at 500 ng/ml [4]: 4020
hIgG (antibody)	–	–	MFI at 156.25 ng/ml [5]: 21.4; MFI at 10000 ng/ml [6]: 26.9; MFI at 2500 ng/ml [7]: 28.7
B1	–	–	EC50 [8]: 2.24 nM; IC50 [9]: 6.86 nM
B2	–	–	EC50 [8]: 1.76 nM; IC50 [9]: 5.29 nM
B3	–	–	EC50 [8]: 1.49 nM; IC50 [9]: 4.38 nM
B4	–	–	EC50 [10]: 3.91 nM
B5	3.08	–	EC50 [10]: 6.19 nM
B6	–	–	EC50 [10]: 7.79 nM
B7	5.18	–	–
B8	3.32	–	–
B9	3.7	–	–
B10	3.63	–	–
B11	4.33	–	–
B12	3.1	–	–
B13	3.89	–	–
B14	–	–	binding result [12]: binds
B15	2.31	–	–
B16	–	5.74	–
B17	–	5.39	–
B18	–	3.06	–
B19	–	3.46	–
B20	–	4.03	–
B21	–	2.76	–
B22	–	3.29	–
B23	–	4.87	–
